Assay results: patent US20260167699A1 (Chugai, published 2026)
Where a chain is given by its changes, count along the chain named.

T1: FcγRIIa(H) (human, UniProt P12318 34-217)
T1 construct: extracellular domain; also called FcγRIIa H type; 2aH
T1 sequence: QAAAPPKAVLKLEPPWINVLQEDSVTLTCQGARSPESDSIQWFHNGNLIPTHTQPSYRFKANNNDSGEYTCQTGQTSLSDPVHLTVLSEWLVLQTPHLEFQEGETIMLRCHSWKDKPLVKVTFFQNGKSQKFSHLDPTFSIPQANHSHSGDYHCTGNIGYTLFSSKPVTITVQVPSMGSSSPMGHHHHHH

T2: FcγRIIa(R) (human, UniProt P12318 34-217)
T2 construct: extracellular domain; also called FcγRIIa R type; 2aR
T2 sequence: T1 sequence with H134R

T3: FcγRIIb (human, UniProt P31994 43-217)
T3 construct: extracellular domain; also called 2b
T3 sequence: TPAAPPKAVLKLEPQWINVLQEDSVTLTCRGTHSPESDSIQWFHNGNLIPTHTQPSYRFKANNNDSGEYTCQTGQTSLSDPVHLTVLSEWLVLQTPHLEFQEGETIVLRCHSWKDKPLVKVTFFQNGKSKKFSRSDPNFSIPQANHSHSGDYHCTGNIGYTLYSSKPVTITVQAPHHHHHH

B1: GpH7-A5/GpH7-B3 variant L235_16H/GpL16-k0 (antibody, human IgG1, kappa)
heavy 1: not shown
heavy 2: not shown
light: DIVMTQSPLSLPVTPGEPASISCQASESLVHSNRNTYLHWYLQKPGQSPQLLIYKVSNRFSGVPDRFSGSGSGTDFTLKISRVEAEDVGVYYCSQNTHVPPTFGQGTKVEIERTVAAPSVFIFPPSDEQLKSGTASVVCLLNNFYPREAKVQWKVDNALQSGNSQESVTEQDSKDSTYSLSSTLTLSKADYEKHKVYACEVTHQGLSSPVTKSFNRGEC
notes: heterodimerized IgG1, one H chain mutated; also called He Ab
B2: GpH7-A5/GpH7-B3 variant P271_16H/GpL16-k0 (antibody, human IgG1, kappa)
heavy 1: not shown
heavy 2: not shown
light: B1 light
notes: as for B1
B3: GpH7-A5/GpH7-B3 variant S239_01G/GpL16-k0 (antibody, human IgG1, kappa)
heavy 1: not shown
heavy 2: not shown
light: B1 light
notes: as for B1
B4: GpH7-A5/GpH7-B3 variant P238_08L/GpL16-k0 (antibody, human IgG1, kappa)
heavy 1: not shown
heavy 2: not shown
light: B1 light
notes: as for B1
B5: GpH7-A5/GpH7-B3 variant L235_18N/GpL16-k0 (antibody, human IgG1, kappa)
heavy 1: not shown
heavy 2: not shown
light: B1 light
notes: as for B1
B6: GpH7-A5/GpH7-B3 variant P271_04F/GpL16-k0 (antibody, human IgG1, kappa)
heavy 1: not shown
heavy 2: not shown
light: B1 light
notes: as for B1
B7: GpH7-A5/GpH7-B3 variant S267_10E/GpL16-k0 (antibody, human IgG1, kappa)
heavy 1: not shown
heavy 2: not shown
light: B1 light
notes: as for B1
B8: GpH7-A5/GpH7-B3 variant S267_09D/GpL16-k0 (antibody, human IgG1, kappa)
heavy 1: not shown
heavy 2: not shown
light: B1 light
notes: as for B1
B9: GpH7-A5/GpH7-B3 variant P238_10E/GpL16-k0 (antibody, human IgG1, kappa)
heavy 1: not shown
heavy 2: not shown
light: B1 light
notes: as for B1
B10: GpH7-A5/GpH7-B3 variant P238_19Q/GpL16-k0 (antibody, human IgG1, kappa)
heavy 1: not shown
heavy 2: not shown
light: B1 light
notes: as for B1
B11: GpH7-A5/GpH7-B3 variant S267_19Q/GpL16-k0 (antibody, human IgG1, kappa)
heavy 1: not shown
heavy 2: not shown
light: B1 light
notes: as for B1
B12: GpH7-A5/GpH7-B3 variant S239_06M/GpL16-k0 (antibody, human IgG1, kappa)
heavy 1: not shown
heavy 2: not shown
light: B1 light
notes: as for B1
B13: GpH7-A5/GpH7-B3 variant S239_07I/GpL16-k0 (antibody, human IgG1, kappa)
heavy 1: not shown
heavy 2: not shown
light: B1 light
notes: as for B1
B14: GpH7-A5/GpH7-B3 variant P238_15Y/GpL16-k0 (antibody, human IgG1, kappa)
heavy 1: not shown
heavy 2: not shown
light: B1 light
notes: as for B1
B15: GpH7-A5/GpH7-B3 variant L235_20W/GpL16-k0 (antibody, human IgG1, kappa)
heavy 1: not shown
heavy 2: not shown
light: B1 light
notes: as for B1
B16: GpH7-A5/GpH7-B3 variant S239_03V/GpL16-k0 (antibody, human IgG1, kappa)
heavy 1: not shown
heavy 2: not shown
light: B1 light
notes: as for B1
B17: GpH7-A5/GpH7-B3 variant S239_08L/GpL16-k0 (antibody, human IgG1, kappa)
heavy 1: not shown
heavy 2: not shown
light: B1 light
notes: as for B1
B18: GpH7-A5/GpH7-B3 variant S239_14T/GpL16-k0 (antibody, human IgG1, kappa)
heavy 1: not shown
heavy 2: not shown
light: B1 light
notes: as for B1
B19: GpH7-A5/GpH7-B3 variant S239_09D/GpL16-k0 (antibody, human IgG1, kappa)
heavy 1: not shown
heavy 2: not shown
light: B1 light
notes: as for B1
B20: GpH7-A5/GpH7-B3 variant P271_15Y/GpL16-k0 (antibody, human IgG1, kappa)
heavy 1: not shown
heavy 2: not shown
light: B1 light
notes: as for B1
B21: GpH7-A5/GpH7-B3 variant P271_14T/GpL16-k0 (antibody, human IgG1, kappa)
heavy 1: not shown
heavy 2: not shown
light: B1 light
notes: as for B1
B22: GpH7-A5/GpH7-B3 variant S239_19Q/GpL16-k0 (antibody, human IgG1, kappa)
heavy 1: not shown
heavy 2: not shown
light: B1 light
notes: as for B1
B23: GpH7-A5/GpH7-B3 variant P238_09D/GpL16-k0 (antibody, human IgG1, kappa)
heavy 1: not shown
heavy 2: not shown
light: B1 light
notes: as for B1
B24: GpH7-A5/GpH7-B3 variant S239_02A/GpL16-k0 (antibody, human IgG1, kappa)
heavy 1: not shown
heavy 2: not shown
light: B1 light
notes: as for B1
B25: GpH7-A5/GpH7-B3 variant S267_02A/GpL16-k0 (antibody, human IgG1, kappa)
heavy 1: not shown
heavy 2: not shown
light: B1 light
notes: as for B1
B26: GpH7-A5/GpH7-B3 variant S239_10E/GpL16-k0 (antibody, human IgG1, kappa)
heavy 1: not shown
heavy 2: not shown
light: B1 light
notes: as for B1
B27: GpH7-A5/GpH7-B3 variant S267_01G/GpL16-k0 (antibody, human IgG1, kappa)
heavy 1: not shown
heavy 2: not shown
light: B1 light
notes: as for B1
B28: GpH7-A5/GpH7-B3 variant S239_18N/GpL16-k0 (antibody, human IgG1, kappa)
heavy 1: not shown
heavy 2: not shown
light: B1 light
notes: as for B1

Target: T1, FcγRIIa(H)
Assay: SPR (Biacore), binding relative to GpH7-A5/GpH7-B3/GpL16-k0 x100;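 note: surface plasmon resonance at 25 °C, antibody captured on a sensor chip and soluble FcγR flowed over it in HBS-EP+ running buffer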

Row | Binder | He/Con 2aH
1 | B1 | 99.8%
2 | B2 | 76.4%
3 | B3 | 93.8%
4 | B4 | 81.8%
5 | B5 | 73.5%
6 | B6 | 77.1%
7 | B7 | 103%
8 | B8 | 107%
9 | B9 | 74.6%
10 | B10 | 54.5%
11 | B11 | 61.9%
12 | B12 | 95.4%
13 | B13 | 88.5%
14 | B14 | 57.8%
15 | B15 | 131%
16 | B16 | 88%
17 | B17 | 101%
18 | B18 | 95.9%
19 | B19 | 111%
20 | B20 | 74%
21 | B21 | 69.8%
22 | B22 | 80%
23 | B23 | 84.7%
24 | B24 | 89.9%
25 | B25 | 121%
26 | B26 | 108%
27 | B27 | 72.1%
28 | B28 | 91.1%

Target: T2, FcγRIIa(R)
Assay: as above

Row | Binder | He/Con 2aR
29 | B1 | 110%
30 | B2 | 79%
31 | B3 | 120%
32 | B4 | 132%
33 | B5 | 77.3%
34 | B6 | 75.2%
35 | B7 | 188%
36 | B8 | 186%
37 | B9 | 142%
38 | B10 | 97.8%
39 | B11 | 145%
40 | B12 | 94.7%
41 | B13 | 95.9%
42 | B14 | 147%
43 | B15 | 152%
44 | B16 | 94.1%
45 | B17 | 114%
46 | B18 | 97.4%
47 | B19 | 129%
48 | B20 | 70%
49 | B21 | 94.7%
50 | B22 | 79.8%
51 | B23 | 140%
52 | B24 | 89.8%
53 | B25 | 167%
54 | B26 | 127%
55 | B27 | 121%
56 | B28 | 104%

Target: T4, FcγRIa (human, UniProt P12314 16-292)
T4 construct: extracellular domain; also called 1a
Assay: as above

T4 sequence (P12314 other isoform, or with tags, fused parts or gaps): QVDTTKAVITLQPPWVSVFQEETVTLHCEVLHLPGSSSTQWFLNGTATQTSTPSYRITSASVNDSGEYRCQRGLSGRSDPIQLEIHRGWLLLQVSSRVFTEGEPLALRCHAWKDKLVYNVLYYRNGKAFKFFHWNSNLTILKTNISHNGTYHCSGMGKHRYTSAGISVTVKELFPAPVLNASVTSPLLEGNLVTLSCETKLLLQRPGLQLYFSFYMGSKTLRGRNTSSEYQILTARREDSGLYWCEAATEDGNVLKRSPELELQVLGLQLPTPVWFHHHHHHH

Row | Binder | He/Con 1a
57 | B1 | 92.7%
58 | B2 | 100%
59 | B3 | 104%
60 | B4 | 104%
61 | B5 | 95.2%
62 | B6 | 100%
63 | B7 | 102%
64 | B8 | 106%
65 | B9 | 105%
66 | B10 | 101%
67 | B11 | 99.2%
68 | B12 | 102%
69 | B13 | 101%
70 | B14 | 104%
71 | B15 | 95.9%
72 | B16 | 98.9%
73 | B17 | 103%
74 | B18 | 104%
75 | B19 | 104%
76 | B20 | 101%
77 | B21 | 101%
78 | B22 | 104%
79 | B23 | 99%
80 | B24 | 103%
81 | B25 | 105%
82 | B26 | 108%
83 | B27 | 99.9%
84 | B28 | 104%

Target: T3, FcγRIIb
Assay: as above

Row | Binder | He/Con 2b
85 | B1 | 87.8%
86 | B2 | 76.2%
87 | B3 | 146%
88 | B4 | 207%
89 | B5 | 62.7%
90 | B6 | 66.7%
91 | B7 | 398%
92 | B8 | 326%
93 | B9 | 235%
94 | B10 | 112%
95 | B11 | 228%
96 | B12 | 102%
97 | B13 | 108%
98 | B14 | 221%
99 | B15 | 168%
100 | B16 | 110%
101 | B17 | 142%
102 | B18 | 98.6%
103 | B19 | 209%
104 | B20 | 58.6%
105 | B21 | 107%
106 | B22 | 87.3%
107 | B23 | 224%
108 | B24 | 91.6%
109 | B25 | 256%
110 | B26 | 183%
111 | B27 | 110%
112 | B28 | 121%
